Results as given in patent US20020037999.

Test system: p54 SAPKβ (JNK3) fused to the WIN-ZIP B1 leucine zipper and Myc tag

Substance | tyrosine phosphorylation of p54 (anti-Myc immunoprecipitates probed with anti-PTyr)
v-Src fused at the N-terminus with HA tag alone | p54 is phosphorylated on tyrosine only when the WIN-ZIP A1-Src fusion is present (so not with v-Src carrying the HA tag alone)
v-Src fused at the N-terminus with HA tag plus WIN-ZIP A1 leucine zipper | p54 is phosphorylated on tyrosine only when the WIN-ZIP A1-Src fusion is present
